This is an account of results in patent US20240287172A1 (SCIRHOM, published 2024).

In experiment [1] the target is T1, hiR2-FL-M534S-T7 (human, UniProt Q6PJF5 1-856).
T1 sequence: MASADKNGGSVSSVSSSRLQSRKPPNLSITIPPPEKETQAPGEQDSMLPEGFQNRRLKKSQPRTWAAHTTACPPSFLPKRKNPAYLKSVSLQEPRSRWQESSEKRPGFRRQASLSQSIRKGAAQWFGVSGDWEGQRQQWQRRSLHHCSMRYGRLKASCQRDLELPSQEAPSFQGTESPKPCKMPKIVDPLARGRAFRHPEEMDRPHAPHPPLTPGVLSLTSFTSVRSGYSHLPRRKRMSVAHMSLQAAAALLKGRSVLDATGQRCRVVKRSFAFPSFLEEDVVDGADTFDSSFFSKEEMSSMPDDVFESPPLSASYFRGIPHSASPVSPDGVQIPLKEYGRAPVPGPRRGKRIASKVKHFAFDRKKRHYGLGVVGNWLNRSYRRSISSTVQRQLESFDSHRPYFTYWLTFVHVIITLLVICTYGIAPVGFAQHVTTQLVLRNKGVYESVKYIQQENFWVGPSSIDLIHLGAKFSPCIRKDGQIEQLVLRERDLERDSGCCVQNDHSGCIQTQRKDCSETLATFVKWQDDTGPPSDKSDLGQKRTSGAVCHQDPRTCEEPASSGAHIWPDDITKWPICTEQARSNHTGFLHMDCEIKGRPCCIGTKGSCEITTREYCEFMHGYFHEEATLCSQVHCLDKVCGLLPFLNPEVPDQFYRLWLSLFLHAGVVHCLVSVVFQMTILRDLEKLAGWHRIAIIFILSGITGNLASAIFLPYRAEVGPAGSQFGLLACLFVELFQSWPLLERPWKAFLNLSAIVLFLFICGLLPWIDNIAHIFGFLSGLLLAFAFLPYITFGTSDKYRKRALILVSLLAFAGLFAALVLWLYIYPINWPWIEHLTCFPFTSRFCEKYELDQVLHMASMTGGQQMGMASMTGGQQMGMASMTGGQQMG
In words: FACS, MEF-DKO cells, 3 µg/ml.

Experiment [2] deals with T2, miR2-FL-WT-T7 (mouse, UniProt Q80WQ6 1-827).
T2 construct: on MEF-DKO cells
T2 sequence: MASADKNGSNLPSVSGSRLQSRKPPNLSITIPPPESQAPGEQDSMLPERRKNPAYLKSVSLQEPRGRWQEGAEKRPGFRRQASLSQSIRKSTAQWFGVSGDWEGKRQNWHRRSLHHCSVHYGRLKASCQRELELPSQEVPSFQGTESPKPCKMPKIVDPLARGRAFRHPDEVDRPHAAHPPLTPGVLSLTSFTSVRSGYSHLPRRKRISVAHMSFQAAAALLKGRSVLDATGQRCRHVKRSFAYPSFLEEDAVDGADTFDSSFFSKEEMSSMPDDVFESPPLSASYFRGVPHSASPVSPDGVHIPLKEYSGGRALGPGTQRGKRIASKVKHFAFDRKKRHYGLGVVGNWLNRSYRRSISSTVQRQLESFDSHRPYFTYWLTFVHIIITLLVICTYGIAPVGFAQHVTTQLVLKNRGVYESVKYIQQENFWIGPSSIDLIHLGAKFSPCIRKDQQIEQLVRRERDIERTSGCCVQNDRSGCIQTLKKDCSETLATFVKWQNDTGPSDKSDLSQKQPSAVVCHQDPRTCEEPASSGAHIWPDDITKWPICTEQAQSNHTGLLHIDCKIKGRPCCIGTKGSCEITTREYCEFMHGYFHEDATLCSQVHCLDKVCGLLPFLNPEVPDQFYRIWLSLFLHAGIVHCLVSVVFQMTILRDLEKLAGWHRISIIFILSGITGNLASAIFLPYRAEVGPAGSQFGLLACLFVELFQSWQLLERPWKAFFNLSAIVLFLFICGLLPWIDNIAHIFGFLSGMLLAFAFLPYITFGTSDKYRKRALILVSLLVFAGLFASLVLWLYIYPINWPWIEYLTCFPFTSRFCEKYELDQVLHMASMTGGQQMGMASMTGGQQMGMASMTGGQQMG
The experiment in a line: FACS on MEF-DKO-miR2-FL-WT-T7 cells.

The target in experiment [3] is T3, hiR1-FL-WT-T7 (human, UniProt Q96CC6 1-855).
T3 construct: on MEF-DKO cells
T3 sequence: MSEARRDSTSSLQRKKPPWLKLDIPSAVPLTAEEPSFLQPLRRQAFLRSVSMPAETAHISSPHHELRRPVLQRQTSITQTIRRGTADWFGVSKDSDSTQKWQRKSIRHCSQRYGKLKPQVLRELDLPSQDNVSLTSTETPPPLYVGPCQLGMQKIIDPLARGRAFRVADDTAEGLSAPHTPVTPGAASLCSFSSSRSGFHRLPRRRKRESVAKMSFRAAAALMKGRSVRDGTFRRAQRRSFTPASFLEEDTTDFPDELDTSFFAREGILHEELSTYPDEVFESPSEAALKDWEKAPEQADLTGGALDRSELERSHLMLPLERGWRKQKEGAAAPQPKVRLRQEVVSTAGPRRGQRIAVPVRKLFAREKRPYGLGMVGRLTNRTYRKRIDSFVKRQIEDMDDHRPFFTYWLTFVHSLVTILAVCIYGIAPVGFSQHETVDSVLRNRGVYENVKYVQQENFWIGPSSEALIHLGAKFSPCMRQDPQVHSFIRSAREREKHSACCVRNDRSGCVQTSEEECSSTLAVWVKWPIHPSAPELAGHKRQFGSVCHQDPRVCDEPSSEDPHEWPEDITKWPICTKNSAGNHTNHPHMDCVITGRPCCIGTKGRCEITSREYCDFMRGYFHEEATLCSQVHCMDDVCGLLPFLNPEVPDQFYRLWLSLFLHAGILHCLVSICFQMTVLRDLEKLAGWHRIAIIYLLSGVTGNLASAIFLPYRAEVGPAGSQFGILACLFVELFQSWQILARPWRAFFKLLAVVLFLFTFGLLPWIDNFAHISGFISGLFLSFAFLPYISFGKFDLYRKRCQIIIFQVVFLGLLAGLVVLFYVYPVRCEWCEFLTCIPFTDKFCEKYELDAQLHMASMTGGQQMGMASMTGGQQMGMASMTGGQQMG
The experiment in a line: FACS, MEF-DKO-hiR1-FL-WT-T7 cells. (Flow cytometry measures light scatter and fluorescence of single cells or particles in a stream.)

B1: antibody 5 (antibody, V domains shown)
VH: QVTLKESGPGILQPSQTLSLTCSFSGFSLSTFGMGVGWIRQPSGKGLEWLAHIWWDDEKYYNSALKSRLTISKATSKNQAFLKIANVDTADTATYYCARISNYGSNYWYFNVWGTGTTVTVSS
VL: QVVLTQSPALMSASPGEKVTMTCSAGSSVSCMYWYQQKPGSSPRVLIYDTSNLASGVPARFTGSGSGTSYSLTISRMEAEDAASYYCQQWNSYPLTFGAGTKLELK
notes: mouse IgG, kappa light chain; also called clone #5; purified antibody 5
As for B1, the “loss of binding vs wild type” value in experiment [1] is at least 30%.

B2: antibody 3 (antibody, V domains shown)
VH: QVTLKESGPGILQPSQTLSLTCSFSGFSLTTFAMGIGWVRQPSGKGLEWLAHIWWDGEKYNNPVLKSRLTISKDTSKNQVFLRIANVDTPDTATYYCARISSIYYIIDNWGQGTSVTVSS
VL: DIVLTQSPATLSVTPGHSVSLSCRASQSISNNLHWYQKKSHESPRLLIKYVSQSISGIPSRFSGSGSGTDFTLSINSVETEDFGMYFCQQSYNWPLTFGAGTKLELK
notes: mouse IgG, kappa light chain; also called clone #3; purified antibody 3
For the molecule B2, the binding result in experiment [2] is “no binding (tested: 3 µg/ml)”.

B3: antibody 48 (antibody, V domains shown)
VH: QVQLQQSGTELVRPGTSVKVSCKASGYAFTNYLIEWVKQRPGQGLEWIGVINPGSGFTKYNEKFKGKATLTADKSSSTVYMHLSSLTSEDSAVYFCARGLYRAMDYWGQGTSVTVSS
VL: DIQMTQSPASQSASLGESVTITCLASQTIATWLAWYQQKPGKSPQLLIYGATTLADGVPSRFSGGGSGTKFSFKISSLQAEDFVSYYCQQLYSTPYTFGGGTKLEIK
notes: mouse IgG, kappa light chain; also called clone #48; purified antibody 48
As to B3, the binding result in experiment [3] was “no binding (tested: 3 µg/ml)”.
